This is an account of results in US11369662B2 (The Medical College of Wisconsin, Inc., priority 2014, dated 2022).

In one assay the test system is U-937 cells. As to the kind of experiment: Agarose microdroplet assay of U-937 migration. Format: cell-based. To be noted: 18-24 h, serum-containing media. The protocol:
Agarose microdroplet assay. The agarose microdroplet assay was performed to determine U-937 cellular migration, as previously described. 0.5×10^6 cells/ml U-937 target cells were harvested and washed in HBSS. Cells were spun at 2,000 rpm and were transferred to a graduated 15 ml glass conical tube. The cell concentration was adjusted in agarose medium, prepared from 2% low melting temperature Seaplaque agarose and medium containing 15% FBS, using a 1:4 volume-to-volume dilution. A 1 μl agarose droplet containing 1-10^5 target cells was placed in the center of each well of a 96-well flat-bottom tissue culture plate, in triplicate, using a gastight 0.05 ml Hamilton syringe (Hamilton Company, Reno, Nev.). Droplets were allowed to harden at 4° C. for 20 min. 200 μl chilled test media was applied to each well. […] The plate was incubated for 18-24 h at 37° C. and 5% CO2. Following incubation, the radius of each droplet was determined and target cell migration was measured at four directional points 900 from one another, using an inverted light microscope equipped with a gridded eyepiece, at 40× total magnification. Percent inhibition of each sample was quantified. The plate was incubated for an additional 24 h to measure recovery, and viability was determined by trypan blue exclusion.
Agarose microdroplet assay. The agarose microdroplet assay was performed to determine U-937 cellular migration, as previously described {AdeCXCL121an, 1980 #1609}. 0.5×10^6 cells/ml U-937 target cells were harvested and washed in HBSS. Cells were spun at 2,000 rpm and were transferred to a graduated 15 ml glass conical tube. […] Following incubation, the radius of each droplet was determined and target cell migration was measured at four directional points 900 from one another, using an inverted light microscope equipped with a gridded eyepiece, at 40× total magnification. Percent inhibition of each sample was quantified. The plate was incubated for an additional 24 h to measure recovery, and viability was determined by trypan blue exclusion.

A further assay concerns the target T1, CXCR4 (Homo sapiens, UniProt P61073).
T1 construct: purchased Millipore
Kind of assay: CXCR4 internalization assay in HeLa cells. To be noted: 80 ng/ml, 20 min, FACS surface expression. The class given is cell-based. The protocol: CXCR4 internalization assay. HeLa cells grown on 6-cm dishes were washed twice with PBS and detached from the surface of the plate by incubating with 350 μl Cellstripper cell dissociation solution (Mediatech, Va.) for 10 min at 37° C. Cells were collected in 4 ml PBS containing 0.1% BSA (Media Tech, Va.) by centrifugation. Cell pellets were re-suspended in 1.5 ml PBS-0.1% BSA and 5×10^5 cells were transferred to a fresh 5 ml polystyrene round bottom tube (BD falcon) and washed once with PBS+0.1% BSA and re-suspended in 250 μl PBS-0.1% BSA. […] Following treatment, 4 mL cold PBS was added to each tube, cells were collected by centrifugation and then fixed by re-suspending the pellet in 500 μl 4% paraformaldehyde (made in PBS) and incubating for 15 min at 37° C. Cells were collected by centrifugation and washed once with 4 mL PBS and then twice with PBS-0.1% BSA. […] CXCR4 surface expression was analyzed by flow cytometry (FACS-CANTO; Becton Dickinson) and analysis was performed using FlowJo v.9.3 software.
CXCR4 internalization assay. […] CXCR4 surface expression was analyzed by flow cytometry (FACS-CANTO; Becton Dickinson) and analysis was performed using FlowJo v.9.3 software.

The target of another assay is T2, CXCR41-38 (Homo sapiens, UniProt P61073, C28A).
T2 construct: comprising the first 38 amino acids of CXCR4 preceded by a residual GlyMet dipeptide tag; made in house
As to the kind of experiment: Binding of CXCL12 variants to CXCR41-38 by 2D NMR chemical shift perturbation. To be noted: nonlinear fitting of chemical shift perturbations, quadratic binding equation; read-out: Kd (affinity for CXCR41-38). As to the method: Total peptide additions differed for individual peptide titrations but ranged from 0-160 equivalencies. Spectra were processed using in-house scripts and chemical shift tracking was performed using CARA software. […] For a given interaction, residues with the largest chemical shift perturbations were fitted individually.

T2 sequence (P61073 1-38 C28A): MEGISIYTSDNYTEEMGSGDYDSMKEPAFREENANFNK
T1 sequence (P61073 whole entry): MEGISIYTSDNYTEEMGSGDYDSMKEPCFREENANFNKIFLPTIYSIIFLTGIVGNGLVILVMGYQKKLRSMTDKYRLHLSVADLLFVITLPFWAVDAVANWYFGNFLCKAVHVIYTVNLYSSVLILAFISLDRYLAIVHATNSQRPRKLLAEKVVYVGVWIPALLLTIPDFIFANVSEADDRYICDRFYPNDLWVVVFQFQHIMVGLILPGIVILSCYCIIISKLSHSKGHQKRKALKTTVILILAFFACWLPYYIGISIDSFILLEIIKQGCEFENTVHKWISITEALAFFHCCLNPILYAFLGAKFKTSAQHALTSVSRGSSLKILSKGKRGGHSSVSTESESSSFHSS

As to “CXCL12WT: wild type CXCL12 (stromal cell-derived factor-1/SDF-1), SEQ ID NO:1”, the “maximal inhibition of U-937 cell migration” value in the assay on U-937 cells worked out at 40.1±18%.

Consider “CXCL122: constitutively dimeric variant of CXCL12 containing L36C/A65C mutations”, for which the CXCR4 internalization result with CXCR4 is “nominal internalization”. Further, the Kd in the assay with CXCR41-38 worked out at 900 ± 300 nM.
